In patent US20250092135A1 (NANJING LEADS BIOLABS, published 2025):

What was measured:
[1] = target: T1, Human CD3D & CD3E heterodimer protein (human, UniProt P07766 23-126; P04234 22-105); assay: BLI (ForteBio Octet RED96), antibody on AHC sensor, analyte 100-3.13 nM, 1:1 model
T1 construct: Bought recombinant heterodimer; also called human CD3 protein (Sino Biological, Cat #CT038-H2508H)
From the text: (§1) In this experiment, the binding affinity of the bispecific antibody for the human CD3 protein (Cat #CT038-H2508H, Sinobiological), cynomolgus monkey CD3 protein (Cat #CDD-C52W4, Acrobiosystems), human MUC16 protein (full-length human MUC16, the membrane-proximal end of the extracellular region of MUC16 (Table 26)), and cynomolgus monkey MUC16 protein (full-length cynomolgus monkey MUC16, the membrane-proximal end of the extracellular region of MUC16 (Table 26)) was detected using ForteBio Octet RED96 according to the manufacturer's instructions.
(§2) Briefly, an AHC sensor (ForteBio, Cat #18-5060) was placed in a running buffer (1×PBS, Hyclone, Cat #SH30256.01, containing 0.02% Tween 20, pH 7.0) and pre-equilibrated at room temperature for 10 min. […] The experimental data were fitted and calculated using a Fortebio Data Analysis software 1:1 binding model.

[2] = target: T2, Cynomolgus monkey CD3D & CD3E heterodimer protein (cynomolgus monkey, UniProt Q95LI5 22-117; Q95LI8 22-105); assay: as above
T2 construct: same catalogue number; also called monkey CD3 protein (Acro biosystems, Cat #CDD-C52W4)
From the text: as §1, §2

Human MUC16-His = target: T3, Human MUC16-His (human); assay: as above
T3 construct: The entry includes the C-terminal 6xHis tag; also called membrane-proximal end of the extracellular region of the human MUC16 protein; Human MUC16 protein
T3 chain: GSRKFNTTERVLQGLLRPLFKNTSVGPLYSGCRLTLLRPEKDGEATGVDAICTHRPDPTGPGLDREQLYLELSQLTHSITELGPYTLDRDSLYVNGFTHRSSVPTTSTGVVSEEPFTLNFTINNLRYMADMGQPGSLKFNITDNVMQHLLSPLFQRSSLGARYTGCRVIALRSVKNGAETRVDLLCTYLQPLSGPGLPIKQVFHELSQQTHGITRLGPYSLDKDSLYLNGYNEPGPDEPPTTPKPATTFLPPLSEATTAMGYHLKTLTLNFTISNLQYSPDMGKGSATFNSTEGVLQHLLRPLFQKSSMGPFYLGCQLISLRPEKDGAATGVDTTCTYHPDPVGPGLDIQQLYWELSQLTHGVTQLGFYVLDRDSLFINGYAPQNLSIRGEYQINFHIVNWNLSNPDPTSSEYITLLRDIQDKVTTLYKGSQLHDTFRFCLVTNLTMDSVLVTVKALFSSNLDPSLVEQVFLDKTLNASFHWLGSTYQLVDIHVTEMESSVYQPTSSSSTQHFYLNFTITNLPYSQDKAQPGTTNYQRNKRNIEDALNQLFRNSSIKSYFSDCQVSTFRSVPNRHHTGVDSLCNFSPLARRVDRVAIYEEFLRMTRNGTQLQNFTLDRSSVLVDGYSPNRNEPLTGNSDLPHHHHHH
From the text: as §1, §2

[3] = target: T4, Cynomolgus monkey MUC16-His (cynomolgus monkey); assay: as above
T4 construct: The entry includes the C-terminal 6xHis tag; also called Cynomolgus monkey MUC16 protein
T4 chain: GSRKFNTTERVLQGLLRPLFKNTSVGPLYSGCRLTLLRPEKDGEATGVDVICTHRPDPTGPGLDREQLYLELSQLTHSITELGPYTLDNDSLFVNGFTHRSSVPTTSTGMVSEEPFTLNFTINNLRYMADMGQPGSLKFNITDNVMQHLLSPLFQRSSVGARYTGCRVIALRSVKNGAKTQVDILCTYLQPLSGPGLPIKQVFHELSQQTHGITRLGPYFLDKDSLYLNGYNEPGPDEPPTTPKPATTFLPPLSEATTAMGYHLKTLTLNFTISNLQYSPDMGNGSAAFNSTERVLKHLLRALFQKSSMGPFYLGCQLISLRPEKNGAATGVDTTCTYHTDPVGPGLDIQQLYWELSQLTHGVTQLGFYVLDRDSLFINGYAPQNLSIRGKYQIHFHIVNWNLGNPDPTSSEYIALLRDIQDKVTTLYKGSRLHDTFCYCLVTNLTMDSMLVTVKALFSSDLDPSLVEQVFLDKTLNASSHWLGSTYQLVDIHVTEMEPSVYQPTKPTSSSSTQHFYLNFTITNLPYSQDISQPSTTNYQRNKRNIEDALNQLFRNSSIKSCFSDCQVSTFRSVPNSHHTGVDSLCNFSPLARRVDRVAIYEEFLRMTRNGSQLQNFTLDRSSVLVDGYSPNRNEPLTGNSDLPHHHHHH
From the text: as §1, §2

[4] = target: T5, human CD3 protein endogenously expressed on Jurkat cells (human, UniProt P07766 23-207); assay: flow cytometry, Jurkat cells (endogenous CD3), PE anti-human IgG Fc secondary, MFI; EC50 table under the plot, unit from the axis Conc.(nM); curve flat at about 1250 up to about 33 nM, about 1900-2200 at the two top concentrations
T5 construct: whole, on cells; The whole CD3 complex is on the cells; also called CD3 on Jurkat cells; CD3 on Jurkat/NFAT-luc cells
Procedure: (3) Whether the anti-CD3/anti-MUC16 bispecific antibodies in the present invention could bind to the CD3 protein endogenously expressed on Jurkat cells (Cell Bank of Type Culture Collection Committee of the Chinese Academy of Sciences, Cat #SCSP-513) was determined by cell binding experiments. Detection was performed using the flow cytometry described above, with the following differences: the dilution gradient for the test bispecific antibody was: a maximum concentration of 200 nM, starting from a second concentration of 100 nM, 5-fold dilution, 10 points; the bispecific antibodies were added to Jurkat cells, and the cells were incubated at 4° C. for 30 min. The cells were washed twice with PBS, and then fluorescent secondary antibody R-PE-conjugated AffiniPure Goat Anti-Human IgG, Fcγ Fragment Specific was added. The cells were incubated at 4° C. for 30 min. The cells were washed twice with PBS and then resuspended, and finally, fluorescence signals were detected using a BD Accuri C5 (BD Bioscience) flow cytometer.

T1 sequence (P07766 23-126 limits assumed, chain 1 of 2): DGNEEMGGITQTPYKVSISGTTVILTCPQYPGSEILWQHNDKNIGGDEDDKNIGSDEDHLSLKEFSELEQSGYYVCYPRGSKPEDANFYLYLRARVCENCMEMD
T1 sequence (P04234 22-105 limits assumed, chain 2 of 2): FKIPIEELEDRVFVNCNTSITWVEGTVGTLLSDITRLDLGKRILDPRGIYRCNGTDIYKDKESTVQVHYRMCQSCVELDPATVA
T2 sequence (Q95LI5 22-117 limits assumed, chain 1 of 2): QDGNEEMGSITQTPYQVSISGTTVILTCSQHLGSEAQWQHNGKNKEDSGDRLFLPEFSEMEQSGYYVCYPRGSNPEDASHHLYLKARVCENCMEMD
T2 sequence (Q95LI8 22-105 limits assumed, chain 2 of 2): as the sequence (P04234 22-105 limits assumed, chain 2 of 2) above, with I5V, N15K, I20V, S32T, D33N, I34N, T64A, S74N, V83L counted along it
T5 sequence (P07766 23-207): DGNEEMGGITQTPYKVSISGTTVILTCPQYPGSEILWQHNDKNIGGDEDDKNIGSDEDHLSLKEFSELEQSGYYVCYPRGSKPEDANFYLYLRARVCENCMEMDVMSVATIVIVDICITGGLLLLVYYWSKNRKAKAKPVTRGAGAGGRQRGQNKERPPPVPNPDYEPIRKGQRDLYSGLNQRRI

B1: anti-CD3/MUC16 bispecific antibody MCH7-23L2-MCH7 (bispecific antibody, human IgG1, kappa, L234A L235A)
heavy 1: QVQLVQSGAEVKKPGASVKVSCKASGYTFTDYNIHWVRQAPGQGLEWMGYIYPYNGVSDYNQNFKSRVTMTTDTSTSTAYMELRSLRSDDTAVYYCARWDFGSGYYFDYWGQGTLVTVSSASTKGPSVFPLAPSSKSTSGGTAALGCLVKDYFPEPVTVSWNSGALTSGVHTFPAVLQSSGLYSLSSVVTVPSSSLGTQTYICNVNHKPSNTKVDKKVEPKSCEVQLVESGGGLVQPGGSLKLSCAASGFTFSTYAMNWVRQAPGKGLEWVGRIRSKYNNYATYYADSVKDRFTISRDDSKNTLYLQMNSLKTEDTAVYYCTRHGNFGNSYVSWFAYWGQGTTVTVSSGGGGSGGGGSGGGGSQAVVTQEPSLTVSPGGTVTLTCRSSTGAVTTSNYANWVQQKPGQAPRGLIGGTNKRAPGVPARFSGSLLGGKAALTLSGAQPEDEAEYFCALWYSNLWVFGGGTKLTVLGEPKSSDKTHTCPPCPAPEAAGGPSVFLFPPKPKDTLMISRTPEVTCVVVAVSHEDPEVKFNWYVDGVEVHNAKTKPREEQYNSTYRVVSVLTVLHQDWLNGKEYKCKVSNKALAAPIEKTISKAKGQPREPQVCTLPPSRDELTKNQVSLSCAVKGFYPSDIAVEWESNGQPENNYKTTPPVLDSDGSFFLVSKLTVDKSRWQQGNVFSCSVMHEALHNHYTQKSLSLSPGK
heavy 2: not shown
light: EIVLTQSPATLSLSPGERATLSCRASSSVIYMSWYQQKPGQAPRLLIYGTSTLASGIPARFSGSGSGTDFTLTISSLEPEDFAVYYCQQWSSNPFTFGQGTKLEIKRTVAAPSVFIFPPSDEQLKSGTASVVCLLNNFYPREAKVQWKVDNALQSGNSQESVTEQDSKDSTYSLSSTLTLSKADYEKHKVYACEVTHQGLSSPVTKSFNRGEC
notes: MCH7-23L2ScFv-Hole (VH-CH1-scFv-Fc) + MCH7-KIH-Knob + two light chains MCL4 LC
[1]
  Kd: 44.3 nM
  koff: 0.00933 s⁻¹
  kon: 211000 M⁻¹ s⁻¹
[2]
  Kd: 30.4 nM
  koff: 0.00378 s⁻¹
  kon: 124000 M⁻¹ s⁻¹
Human MUC16-His
  Kd: 3.17 nM
  koff: 0.000524 s⁻¹
  kon: 166000 M⁻¹ s⁻¹
[3]
  Kd: 2.91 nM
  koff: 0.000546 s⁻¹
  kon: 188000 M⁻¹ s⁻¹
[4]
  EC50: ~39.3 nM
